Measurements taken from publication PMC5561129.

Target: full-length 3xflag-LRRK1 (leucine-rich repeat kinase 1) (human) (UniProt Q38SD2)
Assay: cryo-EM structure; single particle cryo-EM of purified 3xflag-LRRK1 eluted in Tris buffer at pH 7.4 with 0.02% Triton X-100; thin carbon film on Quantifoil grids; EMAN2 2D classes and 3D reconstruction

Substance: full-length 3xflag-LRRK1 (leucine-rich repeat kinase 1), Q38SD2 1-2015
- stoichiometry N: 2
